This note sets out measurements from US20230279105A1 (SINGLE CELL TECHNOLOGY, published 2023).

For the assay, the target named is T1, Human TIM-3 Human Fc tagged protein (human, fluorescently labeled with HiLyte Fluor 555 (sites not given)).
T1 construct: Bought construct; also called TIM-3 protein tagged with human Fc; ACROBiosystems catalog no: TM3-H5258
Put plainly: capture slide probed with labeled TIM-3-Fc.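 Further: IgG from single CD138-enriched plasma cells, isolated from lymphocytes, immobilized on a derivatized glass slide.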

B1: SCT-Fa173 (antibody, V domains shown)
VH: QVQLQQSGAELMRPGASVTLSCKASGYTFPDYEMYWVKQTPVHGLEWIGVIDPETGGTAYNQKFEVKAILTADKSSNTAYMELRSLTSEDSAVYYCTRWAYWGQGTLVTVSA
VL: QIVLTQSPAIMSASLGERVTMTCTASSSVSSSYLHWYQQKPGSSPKLWVYSTSNLASGVPGRFSGSGSGTSYSLTISSMEAEDAATYYCHHYHRSPPTFGGGTKLEIK
notes: murine IgG
B1: the binding result is given as “binds”.

B2: SCT-Fa175 (antibody, V domains shown)
VH: QVQLQQSGAELVRPGASVTLSCKASGYTFSDYEMHWVKQTPVHGLEWIGVIDPETGDTAYNQKFKDKAVLTADKSSNTAYMELRSLTSEDSAVFFCTSNGYPEHWGQGTTLTVSS
VL: QIVLTQSPAIMSASLGERVTMTCTASSGVSSTYLHWYQQRPGSSPKLWIYSTSTLASGVPARFSGSGSGTSYSLTISSMEAEDAATYYCHQYHRSPLTFGAGTKLELK
notes: murine IgG
For B2, the binding result is on record as “binds”.

B3: SCT-Fa178 (antibody, V domains shown)
VH: QVQLQQSGAELVRPGASVTLSCKASGYTFTDYEMYWVKQTPVHGLEWIGVIDPETGGTAHDQKFKGKAILTADKSSSTAYMELRSLTSEDSAVYYCTRWAFWGQGTLVTVSA
VL: QIVLTQSPAIMSASLGERVTMTCTASSSVSSSYLHWYQQKPGSSPKLWVYSTSNLASGVPGRFSGSGSGTSYSLTISSMEAEDAATYYCHHYNRSPPTFGGGTKLEIK
notes: murine IgG
For the molecule B3, the binding result is given as “binds”.

B4: SCT-Fa170 (antibody, V domains shown)
VH: QVQLQQSGAELARPGASVKLSCKASGYTFRSYGLSWVKQRTGQGLEWIGEIYPRSGNTYYNEKFKDRVTLTADKSSSAAYMELRSLTSEDSAVYFCARSTAVVAGGFDYWGQGTALTVSS
VL: DIVMTQSPSSLTVTAGEKVTMSCKSSQSLFNSRTQKNSLTWYQQKPGQPPKLLIFWASTRESGVPDRFTGSASGTDFTLTLSGVQAEDLAIYYCQNDYTYPWTFGGGTKLEIK
notes: murine IgG
Take B4: the binding result is given as “binds”.

B5: SCT-Fa171 (antibody, V domains shown)
VH: QVQLQQSGAELARPGASVKLSCKASGYTFTNYGISWVKQRTGQGLEWIGEIYPRSGNSYYNEKFKGKATLTADKSSSTAYMELRSLTSEDSAVYFCARSTAIVAGGFDYWGQGTTLTVSS
VL: DIVMTQSPSSLTVTAGEKVTMSCKSSQSLLNSRIQKNSLTWYQQKPGQPPKLLIYWASTRESGVPDRFTASGSGTDFTLTISSVQAEDLAVYYCQNDYTYPWTFGGGTKLEIK
notes: murine IgG
Consider B5, for which the binding result was “binds”.

B6: SCT-Fa172 (antibody, V domains shown)
VH: QVQLQQSGAELARPGASVKLSCKASGYTFTSYGISWVKQRTGQGLEWIGEIYPRSGNTYYNEKFKGKATLTADKSSSTAYMELRSLTSEDSAVYFCARSTYGSSSYAMDYWGQGTSVTVSS
VL: DVLMTQTPLSLPVSLGDQASISCRSSQSIVHSNGNTYLEWYLQKPGQSPKLLIYKVSNRFSGVPDRFSGSGSGTDFTLKISRVEAEDLGVYYCFQGSHVPYTFGGGTKLEIK
notes: murine IgG
For the molecule B6, the binding result is on record as “binds”.

B7: SCT-Fa176 (antibody, V domains shown)
VH: QVQLQQSGAELVRPGASVTLSCKASGYTFTDFEMHWVKQTPVHGLEWIGAIDPETGGTAYNQKFKGKAILTADRSSSTAYMELRSLTSEDSAVYYCTRGIYYGNYGSAMDYWGQGTSVTVSS
VL: DVLMTQTPLSLPVSLGDQASISCRSSQSIVHSNGNTYLEWYLQKPGQSPKLLIYKVSNRFSGVPDRFSGSGSGTDFTLKISRVEAEDLGVYYCFQGSHAPLTFGAGTKLELK
notes: murine IgG
Regarding B7, the binding result was “binds”.

B8: SCT-Fa177 (antibody, V domains shown)
VH: QVQLQQSGAELVRPGASVTLSCKASGYTFTDYEMYWVKQTPVHGLEWIGVIDPETGGTAHDQKFKGKAILTADKSSSTAYMELRSLTSEDSAVYYCTRWAFWGQGTLVTVSA
VL: DVVMTQTPLSLPVSLGDQASISCRSSQSLVHSNGNTYLHWYLQKPGQSPKLLIYKVSNRFSGVPDRFSGSGSGTDFTLRISRVEADDLGVYFCSQSTHVPYTFGGGTKLEIK
notes: murine IgG
In the case of B8, the binding result is recorded as “binds”.

B9: SCT-Fa007 (antibody, V domains shown)
VH: EVKLVESEGGLVHPGSSMKLSCTASGFTFSDYYMAWVRQVPEKGLEWIANINFDGSGTYYLDSLKSRFIISRDNGKNILYLQMSGLKSEDTATYYCARLYDGYYAYWGQGTTLTVSS
VL: DVVMTQTPLSLPVSLGDQASISCRSSQSLVHSNGNTYLYWYLQKPGQSPKLLIYKVSNRFSGVPDRFSGSGSGTDFTLKISRVEAEDLGVYFCSQSTHVPLTFGAGTKLELK
notes: murine IgG
In the case of B9, the binding result is “binds”.

B10: SCT-Fa169 (antibody, V domains shown)
VH: QVQLQQPGTELVMPGASVNLSCKASGYTFTSYWMHWVKQRPGQGLEWIGEIDPSDSYANYNQNFKGKATLTVDKSSITAYMQLSSLTSEDSAVYYCARNYGSNYVGYFDYWGQGTTLTVSS
VL: DIQMTQTTSSLSASLGDRVTISCRASQDISNYLNWYQQKPDGTVKLLIYYTSRLHSGVPSRFSGSGSGTDYSLTISNLDQEDIATYFCQQEKTLPWTFGGGTKLEIK
notes: murine IgG
Consider B10, for which the binding result is “binds”.

B11: SCT-Fa161 (antibody, V domains shown)
VH: QVQLQQPGTELVKPGASVKVSCKASGYTFISYWMHWVKQRPGQGLEWIGNIDPNYGGPNYNEKFKTKATLTVDKSSSTAYMQLSSLTSEDSAVYYCARWGWDGFAYWGQGTLVTVSA
VL: QIVLTQSPALMSASPGEKVTMTCSASSSVSYMYWYQQKPRSSPKPWIYLTSNLASGVPARFSGSGSGTSYSLTISSMEAEDAATYYCQQWSSNPFTFGSGTKLEIK
notes: murine IgG
For B11, the binding result is “binds”.

B12: SCT-Fa163 (antibody, V domains shown)
VH: QVQLQQPGTELVKPGASVKVSCKASGYTFISYWMHWVKQRPGQGLEWIGNIDPNYGGSNYNEKFKSKATLTVDKSSSTAYMQLSSLTSEDSAVYYCARWGWDGFAYWGQGTLVTVSA
VL: DIQMTQSPSSLSASLGERVSLTCRASQDIGSSLNWLQQEPDGTIKRLIYATSSLDSGVPKRFSGSRSGSDYSLTISSLESEDFVDYYCLQYASSPFTFGSGTKLEIK
notes: murine IgG
Regarding B12, the binding result was “binds”.

B13: SCT-Fa179 (antibody, V domains shown)
VH: QVQLQQSGAELVRPGTSVKVSCKASGYAFSNYLIEWVKQRPGQGLEWIGVINPGNGGTTYNEKFKDKATLTADRSSTTAYMQLSSLTSEDSAVFFCARTAYGSPLDYWGQGTTLTVSS
VL: DIKMTQSPSSMYASRGERVTITCKASQDINRYLSWLQQKPGKSPKTLIYRANRLVDGVPSRFSGSGSGQDYSLTISSLEYEDMGIYYCLQYDEFPYTFGGGTKLEIK
notes: murine IgG
As to B13, the binding result is “binds”.

B14: SCT-Fa180 (antibody, V domains shown)
VH: QVQLQQSGAELVRPGTSVKVSCKASGYAFTNYLIEWAKQRPGQGLEWIGVINPGSGATTYNEKFKGRATLTADMSSTTAYMQLSSLTSEDSAVFFCARTAYGSPLDCWGQGTTLTVSS
VL: DIKMTQSPSSMYASLGERVTITCKASQDINRYLSWLQQKAGKSPKTLIYRENRLVEGVPSRFSGSGSGQDYSLTISSLEYEDMGIYYCLQYDEFPYTFGGGTKLEIK
notes: murine IgG
For B14, the binding result was “binds”.

B15: SCT-Fa174 (antibody, V domains shown)
VH: QVQLQQSGAELVKPGASVKLSCKASGYSITGYYIHWVKQRPGQGLEWIGWIYPGSGSIKYNEKFKGKATLTADTSSSTADMQLSSLTSEDSAVYYCAREAWGNWYFDVWGTGTTVTVSS
VL: DILLTQSPAILSVSPGERVSFSCRASQSIGTSIHWYQQRTNGSPRLLIKYASESISGIPSRFSGSGSGTDFTLSINSVESEDIADYYCQQSNSWPYTFGGGTKLEIK
notes: murine IgG
Turning to B15, the binding result is given as “binds”.
